Measured values from patent publication US20150266963A1 (ARGEN X B V, published 2015).

Experiments:
[1] = target: T1, human-mouse CD70 chimera chim-2 (Flag-TNC-CD70); test: ELISA; chimera captured by anti-Flag mAb
T1 construct: also called chimera 2
T1 chain: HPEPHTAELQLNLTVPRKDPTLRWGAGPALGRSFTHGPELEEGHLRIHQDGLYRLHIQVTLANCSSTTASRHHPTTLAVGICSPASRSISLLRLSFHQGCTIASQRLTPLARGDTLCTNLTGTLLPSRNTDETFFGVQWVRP

[2] = target: T2, human-mouse CD70 chimera chim-3 (Flag-TNC-CD70); test: ELISA; chimera captured by anti-Flag mAb
T2 construct: also called chimera 3
T2 chain: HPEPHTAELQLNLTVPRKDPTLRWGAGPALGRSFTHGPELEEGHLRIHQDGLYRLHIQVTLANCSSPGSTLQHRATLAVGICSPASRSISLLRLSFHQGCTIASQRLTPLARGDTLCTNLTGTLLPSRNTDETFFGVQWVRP

[3] = target: T3, human-mouse CD70 chimera chim-4 (Flag-TNC-CD70) (Mus musculus (Mouse), UniProt O55237 54-192); test: ELISA; chimera captured by anti-Flag mAb
T3 construct: also called chimera 4
T3 chain: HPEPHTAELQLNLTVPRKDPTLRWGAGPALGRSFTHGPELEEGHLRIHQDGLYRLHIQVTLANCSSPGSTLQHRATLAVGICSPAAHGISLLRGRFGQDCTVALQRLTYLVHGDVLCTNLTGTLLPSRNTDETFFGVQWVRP

[4] = target: T4, human CD70 expressed on the surface of cells (human, UniProt P32970 1-193); test: FACS MFI at 37 C, A498 cells; reference SGN70
T4 construct: whole, on cells; also called cell surface expressed CD70; CD70 on cells
T4 sequence (looked up): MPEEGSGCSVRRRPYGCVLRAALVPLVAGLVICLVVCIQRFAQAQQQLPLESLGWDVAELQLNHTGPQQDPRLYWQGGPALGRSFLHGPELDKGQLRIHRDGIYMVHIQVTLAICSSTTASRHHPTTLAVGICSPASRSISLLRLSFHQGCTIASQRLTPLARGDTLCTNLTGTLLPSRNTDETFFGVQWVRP
Protocol: (§1) Several cancer cell lines were tested by FACS analysis for binding of ARGX-110 and SGN70 (described in US2010/0129362) at saturating mAb concentrations (at least 2 μg/ml). This was either done at 4° C. (1 hour incubation of cells with mAbs) or at 37° C. (15 minutes incubation of cells with mAbs). Binding was detected using anti-hIgG1-Fc-FITC (AF006, Binding Site) or anti-hIgG1-Fc-PE antibody (eBioscience, 12-4998). Fluorescence was measured using a flow cytometer.

[5] = target: T4, human CD70 expressed on the surface of …; test: FACS MFI at 37 C, Mec1 cells; reference SGN70
Protocol: as §1

[6] = target: T4, human CD70 expressed on the surface of …; test: FACS MFI at 37 C, Raji cells; reference SGN70
Protocol: as §1

[7] = target: T4, human CD70 expressed on the surface of …; test: FACS MFI at 37 C, 786-O cells; reference SGN70
Protocol: as §1

[8] = target: T4, human CD70 expressed on the surface of …; test: FACS MFI at 37 C, EBC-1 cells; reference SGN70
Protocol: as §1

[9] = target: T4, human CD70 expressed on the surface of …; test: FACS MFI at 37 C, U87MG cells; reference SGN70
Protocol: as §1

[10] = target: T4, human CD70 expressed on the surface of …; test: FACS MFI at 37 C, MKN-45 cells; reference SGN70
Protocol: as §1

[11] = target: T4, human CD70 expressed on the surface of …; test: FACS MFI at 37 C, SU-DHL-6 cells; reference SGN70
Protocol: as §1

[12] = target: T4, human CD70 expressed on the surface of …; test: FACS MFI at 37 C, Granta 519 cells; reference SGN70
Protocol: as §1

mouse Flag-TNC-CD70 = target: T5, mouse Flag-TNC-CD70 (mouse, UniProt O55237 45-195); test: ELISA; mouse Flag-TNC-CD70 captured by anti-Flag mAb
T5 construct: extracellular domain; also called mouse CD70; not shown: Flag tag and TNC trimerisation domain
T5 sequence (looked up): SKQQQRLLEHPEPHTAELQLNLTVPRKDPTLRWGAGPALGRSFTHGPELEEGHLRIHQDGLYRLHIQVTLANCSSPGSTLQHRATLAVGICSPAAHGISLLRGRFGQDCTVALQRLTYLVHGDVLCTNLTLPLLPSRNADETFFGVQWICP

[13] = target: T4, human CD70 expressed on the surface of …; test: flow cytometry on SU-DHL-6 cells, 1 h at 4 °C, anti-hIgG1-Fc-FITC or anti-hIgG-Fc-PE [panel SU-DHL-6]
Protocol: […] This was either done at 4° C. (1 hour incubation of cells with mAbs) or at 37° C. (15 minutes incubation of cells with mAbs). Binding was detected using anti-hIgG1-Fc-FITC (AF006, Binding Site) or anti-hIgG1-Fc-PE antibody (eBioscience, 12-4998). Fluorescence was measured using a flow cytometer.

B1: ARGX-110 (non-fucosylated 41D12 human IgG1) (antibody, V domains shown)
VH: EVQLVESGGGLVQPGGSLRLSCAASGFTFSVYYMNWVRQAPGKGLEWVSDINNEGGTTYYADSVKGRFTISRDNSKNSLYLQMNSLRAEDTAVYYCARDAGYSNHVPIFDSWGQGTLVTVSS
VL: QAVVTQEPSLTVSPGGTVTLTCGLKSGSVTSDNFPTWYQQTPGQAPRLLIYNTNTRHSGVPDRFSGSILGNKAALTITGAQADDEAEYFCALFISNPSVEFGGGTQLTVLG
notes: also called 41D12 (ARGX-110)
binding result [1]: no binding (tested: dilution series from 10 µg/ml) | binding result [2]: no binding (tested: dilution series from 10 µg/ml) | binding result [3]: no binding (tested: dilution series from 10 µg/ml) | Signal in FACS of ARGX-110/signal in FACS of SGN70 [4]: 1 ratio | Signal in FACS of ARGX-110/signal in FACS of SGN70 [5]: 1.2 ratio | Signal in FACS of ARGX-110/signal in FACS of SGN70 [6]: 1.2 ratio | Signal in FACS of ARGX-110/signal in FACS of SGN70 [7]: 2.1 ratio | Signal in FACS of ARGX-110/signal in FACS of SGN70 [8]: 8.9 ratio | Signal in FACS of ARGX-110/signal in FACS of SGN70 [9]: 2 ratio | Signal in FACS of ARGX-110/signal in FACS of SGN70 [10]: 10.6 ratio | Signal in FACS of ARGX-110/signal in FACS of SGN70 [11]: 2.4 ratio | Signal in FACS of ARGX-110/signal in FACS of SGN70 [12]: 0.9 ratio | binding result (mouse Flag-TNC-CD70): no binding (tested: dilution series from 10 µg/ml) | EC50 (read off the curve) [13]: ~2 µg/mL
